Test results published in US20240101708A1 (Genentech, published 2024).
Numbering of substitutions follows the chain as printed.

B1: ZNRF3-219 (antibody, V domains shown)
VH: EVQLVESGGGLVQPGRSLKVSCAASGFTFSTFAMAWVRQAPKKGLEWVATITPGGSNTYYPDSVKGRFTISRDNAKSTLYLQMDSLRSEDTANYYCAKCGYPGITSFDYWGQGVMVTVSS
VL: DIQMTQSPSFLSASVGDRVSINCKASQNIGKYLNWYQQELGEAPKRLIYNTNNLQTGIPSRFSGSGSGTDYTLTISGLQPEDFATYFCLQHNGFPLTFGSGTKLEIK
notes: Rat clone; VH/VL only
B2: ZNRF3-279 (antibody, V domains shown)
VH: QVQLQQSGAELVKPGTSVRLSCKASGYTFTHNHMNWIKQTTGQGLEWIGIINPGSGGTNYNVRFKGKATLTVDTSSSTAFMQLSSLTPEDSAVYYCARNLITIAGPFAYWGQGTLVTVSS
VL: DTVLTQSPALTVSPGERVSISCRASEGVSSYIHWYQQKPGQQPKLLIYKASNLASGVPARFSGSGSGTDFTLTIDPVEADDTATYFCQQSWIDHTFGTGTKLELK
notes: Rat clone; VH/VL only
B3: ZNRF3-275 (antibody, V domains shown)
VH: QVQLKESGPGLVQPSQTLSLTCTVSGFSFNYYNVHWLRQPPGKGLEWLGVIWSGGNRDYNSALKPRLRISRDTSKTQVFLTLNSLQTEDTGIYYCTRMWGYGYNPFDHWGQGVMVTVSS
VL: DIQMTQSPSFLSASLGDNITITCHASQDIKGWLAWYQQKSGNAPELLIYKASSLQSGVPSRFSGGGSGTEYVLTISNLQPDDIATYYCQLYHSFPFTFGSGTKLETK
notes: Rat clone; VH/VL only
B4: ZNRF3-314 (antibody, V domains shown)
VH: B3 VH with T23N, L37V, R57T, T76S, T96N, H108Y
VL: B3 VL with D17N, A51T, G65S, T106I
notes: Rat clone; VH/VL only
B5: ZNRF3-253 (antibody, V domains shown)
VH: EVQLVESGGGLVQPERSMKLSCAASGFTFSNYGMAWVRQAPTKGLEWVATINSDGSGTYYRGSVKGRFTISRDNAKSTLYLQMNSLRSDDTATYYCTRGRMLRIISFFDYWGQGVMVTVSS
VL: DIQMTQSPASLSASLGETVSIECLASEDIANDLAWYQQKSGKSPQVLIYAASRVQDGVPSRFSGSGSGTRYSLKITDMQPEDVADYFCQQSYGFPLTFGSGTKLEIK
notes: Rat clone; VH/VL only
B6: ZNRF3-254 (antibody, V domains shown)
VH: EVQLVESGGGLVQPERSMKLSCAASGFTFNNYGMAWVRQTPTKGLEWVATINSDGSGTHYRGSVKGRFTISRDNAKGTLYLQMHNLRSDDTATYYCARGRILRIITYFDSWGQGVVVTVSS
VL: B5 VL with T18S, K42R, Y49H
notes: Rat clone; VH/VL only
B7: ZNRF3-300 (antibody, V domains shown)
VH: B5 VH with K76R, S77N, Q82E, M101I, S106T, F107Y
VL: B5 VL with L15V, K74R, T76S, G93S
notes: Rat clone; VH/VL only
B8: ZNRF3-247 (antibody, V domains shown)
VH: EVQLVGSGEGLVQPGSSMKLSCVASGFTFSNSGMNWIRQAPKKGLEWIALIYYTNTYYADSVKGRFTISRDNSKNTLYLEMNSLRSEDTAMYYCAKRGLTGSVDYWGQGVMVTVSS
VL: DIQMTQSPSFLSASVGDRVTINCKASQNINRYLNWYQQKLGEAPKRLIYDTSNLQTGIPSRFSGSGSGTDFTLTISSLQPEDFATYFCLQHDSFPNTFGTGTKLELK
notes: Rat clone; VH/VL only
B9: ZNRF3-172 (antibody, V domains shown)
VH: EVQLAESGGGLEQPGRSLKLSCAASGFTFSNYDMAWVRQAPTKGLEWVASIIASGGTTYYRDSVKGRFTVSRDNAKSTLYLQMDSLRSEDTATYYCARHGVGSYDWFADWGQGTLVTVSS
VL: DIVLTQSPALAVSLGQRATISCRASQSVTISGFNLMHWYQQKPGQQPKLLIYRASNLAFGIPARFSGSGSGTDFTLTINPVQADDITTYYCQQSRKSRTFGGGTKLELK
notes: Rat clone; VH/VL only
B10: ZNRF3-179 (antibody, V domains shown)
VH: B9 VH with A53T, G56D, Y95H
VL: B9 VL with F33Y
notes: Rat clone; VH/VL only
B11: ZNRF3-182 (antibody, V domains shown)
VH: B9 VH with A53K, G56D, T58S
VL: B9 VL with I86F
notes: Rat clone; VH/VL only
B12: ZNRF3-30 (antibody, V domains shown)
VH: B9 VH with K43R, I52L, A53T
VL: B9 VL with F33Y, K105R
notes: Rat clone; VH/VL only
B13: ZNRF3-287 (antibody, V domains shown)
VH: EVQLVGSGGGLVQPGRSLKISCAASGFTFSYYGMAWVRQAPTRGLEWVATITYNGSKSYYRDSVKGRFTISREYAKSTLYLQMDDLTSEDTATYFCARRTTGMLFDYWGQGVLVTVSS
VL: QAVLTQPNSVSMSLGSTVKLSCTLNSGNIENNFVHWYQQYEGRSPTTMIYNDDKRPDGVPDRFSGSIDSSSNSAFLTINNVEIGDEAIYFCHSFVSSIHIFGGGTKLTVL
notes: Rat clone; VH/VL only
B14: ZNRF3-265 (antibody, V domains shown)
VH: EVQLVESGGGLVQPGRSMKLSCVASGFSFSKYGMAWVRQAPTKALEWVAIISQDGSRIYYGGSVKGRFTLSRDNEKSTLHLHMNSLRSEDTATYYCARGSILRMITFFDYWGQGVTVTVSS
VL: DIQMTQSPASLSASLGETVSIECLASEGISNDLAWYQQKSGKSPRLLIYAASRLQDGVPSRFSGSGSDTRFSLKISGMHPEDEADYFCQQSYGYPLTFGSGTKLEIK
notes: Rat clone; VH/VL only
B15: ZNRF3-223 (antibody, V domains shown)
VH: EVQLVESGGGLVQPGESLKLSCSASGFTFSNYGMHWIRQVPGKGLDWVAYITNSGGSLYAAAVKGRFTISRDNAKNTLYLELTSLKSEDTAIYHCARGYSYPGPYWGRGTLVTVSS
VL: DIQVTQSPSSLLASLGERVTITCQTGQSINNYLNWYQQRPGQAPLLLIYFATSLQTGVPSRFSGQYSGRSFTLTITSLEPEDIANYFCLQHYSPPYTFGAGTKLELR
notes: Rat clone; VH/VL only
B16: ZNRF3-270 (antibody, V domains shown)
VH: B15 VH with S87P
VL: B15 VL
notes: Rat clone; VH/VL only
B17: ZNRF3-231 (antibody, V domains shown)
VH: B15 VH with T52S, A61D, T83N, R108Q
VL: B15 VL
notes: Rat clone; VH/VL only
B18: ZNRF3-312 (antibody, V domains shown)
VH: QVQLQQSGAELVKPGSSVKMSCKASGYSFTTYYIYWINQRPGQGLEWIGRIGLGSGDTDYNEKFKGKATFTVDKFSNTAYLQLSSLTPEDTAVYYCARWDYGYRGFAYWGQGTLVTVSS
VL: DVVMTQTPVSLSVSLGGQVSISCRSSQSFVHSDGNTYLNWYLQTPGQSPQLLIYKVSNRLSGVPDRFSGSGSGTYFTLKISRVEHDDLGVYYCGQASKIPLTFGSGTKLEIK
notes: Rat clone; VH/VL only
B19: ZNRF3-296 (antibody, V domains shown)
VH: EVQLVESGGGLVQPGKSLRLSCSASGFTFSNYGLHWIRQAPGKGLDWLGYSSSNSGTVYGDAVKGRVTISRDNAKNTLYLQLNSLKSEDTAIYYCARGYSSSPFAYWGQGTLVTVSS
VL: DIVLTQSPALAVSLGQRVTISCKASQNVDGFGIGYMHWYQQKPGQKPKLLIFAGSNLASGIPARFSGSGSGTDFTLTIDPVETDDIATYYCQQNKDFPLTFGSGSRLEIT
notes: Rat clone; VH/VL only
B20: ZNRF3-305 (antibody, V domains shown)
VH: EVLLQQSGAELVRPGSSVKISCKTSGYTFTDYYLHWVKQRPEQGLVWIGRINPINGKTVCIEKFKTKATLTADKSSNTAYMELSSLTSEDTATYFCTRGGLAYWGQGTLVTVSS
VL: DIQMTQSPSSLPASLGERVTISCRASQGISNNLNWYQQKPDGTIKPLIYYTSNLQSGVPSRFSGSGSGTDYSLTIGSLEPEDFTMYYCQQDASFPPTFGAGTKLELK
notes: Rat clone; VH/VL only
B21: ZNRF3-269 (antibody, V domains shown)
VH: EIQLQESGPGLVKPSQSLSLTCSVTDDTITSGYDWSWIRKFPGNKMEWMGDISSSGHTNYNPSLQIRISITRDTSKNQFFLQLNSVTTEDSATYYCARGGFLFPFTFWGQGTLVTVSS
VL: B20 VL with G28V, I29L, S30N, I48L, G76T, E79D, T84A, M85I, A100G
notes: Rat clone; VH/VL only
B22: ZNRF3-301 (antibody, V domains shown)
VH: QVQLKESGPGLVQPSQTLSLTCTVSGFSLTSYSVHWVRQHSGKSLEWMGRIWSDGDTSYNSAFTSRLSISRDTSKSQVFLKMNSLQTEDTGTYYCDRSGGSPFFDYWGQGVMVTVSS
VL: QFVLTQSNSVSTNLGSTVKLSCERSIGNIGSNYVNWYQQYEGRSPTTMIYKFDQRPDGVPDRFSGSIDRSSNSVLLTINNVQTEDEADYFCQSYSSDMYIFGGGTKLTVL
notes: Rat clone; VH/VL only
B23: ZNRF3-17 (antibody, V domains shown)
VH: EVQLVESGGGLVQPGGSLKLSCAASGFTFSNYDMAWVRQAPTKGLEWVASISTGGGKTYYRDSVKGRLTISRDNAKNTQYLQMDSLRSEDTATYYCARLGPAYSGEWFAYWGQGTLVTVSS
VL: DTVLTQSPALAVSPGERVTISCGASEGVNTRMHWYQQRSGQQPKLLIYGSSNLDSGVPDRFSGSGSGTDFTLTIDPVEAKDAATYFCQQSWNVPNTFGAGTKLELK
notes: Rat clone; VH/VL only
B24: ZNRF3-55 (antibody, V domains shown)
VH: B23 VH with Q3H, K43R, T53P, D73N, K76E, M83I, A97S
VL: DTVLTQSPALTVSPGDKITISCRASEGVNTRIHWYQQKSGQQPKLLIYGASNLDSGVPDRFSGSGFGTDFTLTIDPVEASDTATYFCQQSWNVPHTFGGGTKLELK
notes: Rat clone; VH/VL only

Biological target: T1, recombinant human ZNRF3 extracellular domain (human, UniProt Q9ULT6 56-219)
T1 construct: extracellular domain; also called huZNRF3; human ZNRF3 ECD
T1 sequence (looked up): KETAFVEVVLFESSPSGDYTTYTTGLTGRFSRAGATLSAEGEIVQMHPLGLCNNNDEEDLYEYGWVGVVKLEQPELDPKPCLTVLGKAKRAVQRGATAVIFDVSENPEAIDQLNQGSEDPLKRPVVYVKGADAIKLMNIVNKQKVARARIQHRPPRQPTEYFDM
Assay: SPR Biacore 8K; antibody captured on Protein A; ZNRF3 ECD analyte; 25 C
Protocol: Antibodies were screened for binding to recombinant human RNF43 and ZNRF3 ECDs using a Biacore® 8 k instrument (GE Life Sciences). Briefly, antibodies diluted to 1 μg/ml in 1×HBSP buffer (Cytiva, BR100368) were captured on a Sensor Chip Protein A (GE Life Sciences) using a flow rate of 10 μl/minute and a contact time of 60 seconds. Binding of recombinant human RNF43 and ZNRF3 extracellular domain to the captured antibodies was analyzed at 25° C. using a single cycle kinetics method with a flow rate of 30 μl/minute, a contact time of 180 seconds and a dissociation time of 600 seconds. The concentration of recombinant human RNF43 and ZNRF3 extracellular domain in the single cycle kinetics were 0, 0.8, 4, 20, and 100 nM. Between cycles, the chip was regenerated using 10 mM Glycine HCl pH 1.5 injected for 30 seconds at 30 μl/minute. Data were evaluated using Biacore 8K Evaluation software (GE Life Sciences). Kinetic constants were obtained using a 1:1 binding model with the parameter RI set to zero. Cell surface ligase antibodies with sub-nanomolar affinities may provide advantages in certain instances, for example, in the degradation efficiency which is correlated with the durability of the ternary complex as shown in FIG. 5D.

Row | Binder | Kd [pM]
1 | B1 | 1900
2 | B2 | 1660
3 | B3 | 56.5
4 | B4 | 104
5 | B5 | 483
6 | B6 | 104
7 | B7 | 239
8 | B8 | 161
9 | B9 | 210
10 | B10 | 110
11 | B11 | 60
12 | B12 | 120
13 | B13 | 191
14 | B14 | 28.6
15 | B15 | 44.3
16 | B16 | 42.4
17 | B17 | 78.3
18 | B18 | 611
19 | B19 | 37.1
20 | B20 | 7180
21 | B21 | 312
22 | B22 | 97.4
23 | B23 | 40
24 | B24 | 20
